These results are taken from paper PMC5171940.

In the experiment the target is Aβ oligomers: soluble prefibrillar aggregates of biotinylated Aβ(1–42). The experiment is described as follows: SPR; BIAcore T200, single-cycle kinetics; biotinylated Aβ (11–28 or oligomeric 1–42) captured on streptavidin-coupled CM5 chip (100–200 RU); antibody as analyte 0.8–500 nM in HBS-P pH 7.4, 0.15 M NaCl; one-to-one Langmuir model.

Consider “Crenezumab, fully humanized anti-Aβ monoclonal IgG4 (antibody)”, for which the Kd is 0.4 to 0.6 nM.

As usually defined, the Kd is the constant that tells how readily two partners part at equilibrium. High values mean lower affinity, low ones higher affinity.
